# Results from patent US20160053277A1, “Compositions Having Dicamba Decarboxylase Activity and Methods of Use” (PIONEER HI-BRED INTERNATIONAL, INC., priority 2013, published 2016).
# Numbering of substitutions follows the chain as printed. Names and notes keep the numbering of the source.
# B1: K239H: point mutant of SEQ ID NO: 109 (protein)
# chain: MAQGKVALEEHFAIPETLQDSAGFVPGDYWKELQHRLLDIQDTRLKLMDAHGIETMILSLNAPAVQAIPDRRKAIEIARRANDVLAEECAKRPDRFLAFAALPLQDPDAATEELQRCVNDLGFVGALVNGFSQEGDGQTPLYYDLPQYRPFWGEVEKLDVPFYLHPRNPLPQDSRIYDGHPWLLGPTWAFAQETAVHALRLMASGLFDEHPRLNIILGHMGEGLPYMMWRIDHRVAWVHLPPRYPAKRRFMDYFNENFHITTSGNFRTQTLIDAILEIGADRILFSTDWPFENIDHASDWFNATSIAEADRVKIGRTNARRLFKLDGA
# modifications: Dicamba decarboxylase variant clone: DC.4.032
# B2: L240A: point mutant of SEQ ID NO: 109 (protein)
# chain: B1 chain with H239K, L240A
# modifications: Dicamba decarboxylase variant clone: DC.4.032
# B3: L240D: point mutant of SEQ ID NO: 109 (protein)
# chain: B1 chain with H239K, L240D
# modifications: Dicamba decarboxylase variant clone: DC.4.032
# B4: L240E: point mutant of SEQ ID NO: 109 (protein)
# chain: B1 chain with H239K, L240E
# modifications: Dicamba decarboxylase variant clone: DC.4.032
# B5: R243A: point mutant of SEQ ID NO: 109 (protein)
# chain: B1 chain with H239K, R243A
# modifications: Dicamba decarboxylase variant clone: DC.4.032
# B6: S298A: point mutant of SEQ ID NO: 109 (protein)
# chain: B1 chain with H239K, S298A
# modifications: Dicamba decarboxylase variant clone: DC.4.032
# B7: E16A: point mutant of SEQ ID NO: 109 (protein)
# chain: B1 chain with E16A, H239K
# modifications: Dicamba decarboxylase variant clone: DC.4.032
# B8: S298T: point mutant of SEQ ID NO: 109 (protein)
# chain: B1 chain with H239K, S298T
# modifications: Dicamba decarboxylase variant clone: DC.4.032
# B9: D299A: point mutant of SEQ ID NO: 109 (protein)
# chain: B1 chain with H239K, D299A
# modifications: Dicamba decarboxylase variant clone: DC.4.032
# B10: N302A: point mutant of SEQ ID NO: 109 (protein)
# chain: B1 chain with H239K, N302A
# modifications: Dicamba decarboxylase variant clone: DC.4.032
# B11: A303E: point mutant of SEQ ID NO: 109 (protein)
# chain: B1 chain with H239K, A303E
# modifications: Dicamba decarboxylase variant clone: DC.4.032
# B12: R321N: point mutant of SEQ ID NO: 109 (protein)
# chain: B1 chain with H239K, R321N
# modifications: Dicamba decarboxylase variant clone: DC.4.032
# B13: G327Q: point mutant of SEQ ID NO: 109 (protein)
# chain: B1 chain with H239K, G327Q
# modifications: Dicamba decarboxylase variant clone: DC.4.032
# B14: A328D: point mutant of SEQ ID NO: 109 (protein)
# chain: B1 chain with H239K, A328D
# modifications: Dicamba decarboxylase variant clone: DC.4.032
# B15: A328R: point mutant of SEQ ID NO: 109 (protein)
# chain: B1 chain with H239K, A328R
# modifications: Dicamba decarboxylase variant clone: DC.4.032
# B16: D20F: point mutant of SEQ ID NO: 109 (protein)
# chain: B1 chain with D20F, H239K
# modifications: Dicamba decarboxylase variant clone: DC.4.032
# B17: G27A: point mutant of SEQ ID NO: 109 (protein)
# chain: B1 chain with G27A, H239K
# modifications: Dicamba decarboxylase variant clone: DC.4.032
# B18: G27S: point mutant of SEQ ID NO: 109 (protein)
# chain: B1 chain with G27S, H239K
# modifications: Dicamba decarboxylase variant clone: DC.4.032
# B19: G27T: point mutant of SEQ ID NO: 109 (protein)
# chain: B1 chain with G27T, H239K
# modifications: Dicamba decarboxylase variant clone: DC.4.032
# B20: W30L: point mutant of SEQ ID NO: 109 (protein)
# chain: B1 chain with W30L, H239K
# modifications: Dicamba decarboxylase variant clone: DC.4.032
# B21: L38I: point mutant of SEQ ID NO: 109 (protein)
# chain: B1 chain with L38I, H239K
# modifications: Dicamba decarboxylase variant clone: DC.4.032
# B22: D42A: point mutant of SEQ ID NO: 109 (protein)
# chain: B1 chain with D42A, H239K
# modifications: Dicamba decarboxylase variant clone: DC.4.032
# B23: D42M: point mutant of SEQ ID NO: 109 (protein)
# chain: B1 chain with D42M, H239K
# modifications: Dicamba decarboxylase variant clone: DC.4.032
# B24: D42S: point mutant of SEQ ID NO: 109 (protein)
# chain: B1 chain with D42S, H239K
# modifications: Dicamba decarboxylase variant clone: DC.4.032
# B25: T43C: point mutant of SEQ ID NO: 109 (protein)
# chain: B1 chain with T43C, H239K
# modifications: Dicamba decarboxylase variant clone: DC.4.032
# B26: A50K: point mutant of SEQ ID NO: 109 (protein)
# chain: B1 chain with A50K, H239K
# modifications: Dicamba decarboxylase variant clone: DC.4.032
# B27: G52E: point mutant of SEQ ID NO: 109 (protein)
# chain: B1 chain with G52E, H239K
# modifications: Dicamba decarboxylase variant clone: DC.4.032
# Test: Saturation mutagenesis of SEQ ID NO:109: dicamba decarboxylation activity of point mutants (carbon dioxide released)
# Conditions: dicamba decarboxylation activity of point mutants of SEQ ID NO: 109, relative to unchanged template
row,Molecule,Average Activity (Fold of SEQ ID NO: 109)
1,B1,1.8 Fold of SEQ ID NO: 109
2,B2,2.3 Fold of SEQ ID NO: 109
3,B3,2.2 Fold of SEQ ID NO: 109
4,B4,2.1 Fold of SEQ ID NO: 109
5,B5,1.8 Fold of SEQ ID NO: 109
6,B6,2.1 Fold of SEQ ID NO: 109
7,B7,1.8 Fold of SEQ ID NO: 109
8,B8,2.3 Fold of SEQ ID NO: 109
9,B9,2.0 Fold of SEQ ID NO: 109
10,B10,1.9 Fold of SEQ ID NO: 109
11,B11,2.3 Fold of SEQ ID NO: 109
12,B12,1.7 Fold of SEQ ID NO: 109
13,B13,2.8 Fold of SEQ ID NO: 109
14,B14,2.3 Fold of SEQ ID NO: 109
15,B15,3.0 Fold of SEQ ID NO: 109
16,B16,1.9 Fold of SEQ ID NO: 109
17,B17,2.0 Fold of SEQ ID NO: 109
18,B18,2.2 Fold of SEQ ID NO: 109
19,B19,2.0 Fold of SEQ ID NO: 109
20,B20,1.7 Fold of SEQ ID NO: 109
21,B21,2.0 Fold of SEQ ID NO: 109
22,B22,2.0 Fold of SEQ ID NO: 109
23,B23,2.4 Fold of SEQ ID NO: 109
24,B24,2.0 Fold of SEQ ID NO: 109
25,B25,1.7 Fold of SEQ ID NO: 109
26,B26,1.9 Fold of SEQ ID NO: 109
27,B27,3.1 Fold of SEQ ID NO: 109

# Same assay, conditions: point mutation in SEQ ID NO: 109
row,Molecule,Average Activity (Fold of SEQ ID NO: 109)
1,B1,1.8 Fold of SEQ ID NO: 109
2,B4,2.1 Fold of SEQ ID NO: 109
3,B5,1.8 Fold of SEQ ID NO: 109
4,B6,2.1 Fold of SEQ ID NO: 109
5,B10,1.9 Fold of SEQ ID NO: 109
6,B12,1.7 Fold of SEQ ID NO: 109
7,B13,2.8 Fold of SEQ ID NO: 109
8,B14,2.3 Fold of SEQ ID NO: 109
9,B16,1.9 Fold of SEQ ID NO: 109
10,B18,2.2 Fold of SEQ ID NO: 109
11,B20,1.7 Fold of SEQ ID NO: 109
12,B21,2.0 Fold of SEQ ID NO: 109
13,B23,2.4 Fold of SEQ ID NO: 109
14,B25,1.7 Fold of SEQ ID NO: 109
15,B26,1.9 Fold of SEQ ID NO: 109
16,B27,3.1 Fold of SEQ ID NO: 109
